Results taken from patent US20230295301A1 (SHANGHAI JUNSHI BIOSCIENCES, published 2023).
Where a chain is given by its changes, count along the chain named.

T1: huCTLA-4 expressed on cells (human, UniProt P16410 36-223)
T1 construct: the construct in the cells is not described; also called HuCTLA-4-expressing CHO cells; huCTLA-4-expressing Jurkat effector cells
T1 sequence: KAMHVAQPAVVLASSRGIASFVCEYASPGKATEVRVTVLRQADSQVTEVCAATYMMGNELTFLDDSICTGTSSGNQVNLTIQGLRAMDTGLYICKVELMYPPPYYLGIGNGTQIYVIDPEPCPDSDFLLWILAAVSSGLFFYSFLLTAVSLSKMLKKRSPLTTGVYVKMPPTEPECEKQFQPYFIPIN

T2: huCTLA-4 ECD (his-tag) (human, UniProt P16410 37-162)
T2 construct: also called HX1 hCTLA4 his; HX1 huCTLA4 his; not shown: his-tag
T2 sequence: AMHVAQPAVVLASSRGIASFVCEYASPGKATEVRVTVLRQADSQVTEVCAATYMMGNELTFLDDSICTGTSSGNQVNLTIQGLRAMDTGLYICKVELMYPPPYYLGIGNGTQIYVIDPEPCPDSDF

T3: TIGIT on 293T-TIGIT cells (UniProt Q495A1 22-244, limits assumed)
T3 construct: whole, on cells
T3 sequence (looked up): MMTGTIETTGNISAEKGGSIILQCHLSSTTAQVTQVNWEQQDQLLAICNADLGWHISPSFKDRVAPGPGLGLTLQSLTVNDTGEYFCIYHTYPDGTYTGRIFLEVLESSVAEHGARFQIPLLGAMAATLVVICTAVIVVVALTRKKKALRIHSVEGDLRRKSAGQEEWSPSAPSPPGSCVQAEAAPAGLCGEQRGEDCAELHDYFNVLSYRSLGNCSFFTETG

T4: huCTLA-4 (human, UniProt P16410 36-161)
T4 construct: also called human CTLA (huCTLA) antigen; huCTLA4 recombinant protein
T4 sequence: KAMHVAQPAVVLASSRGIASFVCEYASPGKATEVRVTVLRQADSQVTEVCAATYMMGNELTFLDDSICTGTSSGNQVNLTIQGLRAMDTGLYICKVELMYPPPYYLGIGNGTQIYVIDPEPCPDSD

B1: JS007-1 (antibody, V domains shown)
VH: DVQLQESGQGLVKPSQSLSLTCSVTGYSITSGYYWNWIRQFPGNKLEWLGYIGYDGSNYYNPSLKNRISITRDTSKNQFFLKLNSVTSEDTATYFCARNYYSGYFDFWGQGTTLTVSS
VL: DIVMTQSQKFMSTSVGDRVSVTCKASQIVGSYVAWYQQKLGQSPKALIYSTSYRHSGVPDRFTGSGSGTDFTLTISNVQSEDLAEYFCQQHHLPLTFGAGTKLEIK
notes: also called chimeric antibody JS007-1 (1A5.1 VH with 1A5.1 VL)
B2: JS007-11 (antibody, V domains shown)
VH: EVQLQQSGAELVKSGASVKLSCTGSGFNIKDTYMHWVKQRPEEGLEWIGRIDPANGNTKSDPKFQGKATITADTSSNTAYLQLSSLTSVDTAVYYCARSMTTDPFTYWGQGTLVTVSS
VL: DIVMTQSQKFMSTSVGDSVSVTCKASQNVGTYVAWYQQKPGQSPKPLIYSTSYRYSGVPDRFTGSGSGTDFTLTISNVQSEDLAEYFCHQYDTYPLTFGAGTKLELK
notes: also called chimeric antibody JS007-11 (4B7.1-1 VH with 4B7.1-1 VL)
B3: 5B9.1 (antibody, V domains shown)
VH: EVQLQQSGPELVKPGASVKMSCKASGYTFTDYYMKWMKQSHGKSLEWIGHINPNNGDTFYNQKFTGKATLTVDKSSSTASMHLNSLTSEDSAVYYCARGGDGRGTWFAYWGQGTLVTVSS
VL: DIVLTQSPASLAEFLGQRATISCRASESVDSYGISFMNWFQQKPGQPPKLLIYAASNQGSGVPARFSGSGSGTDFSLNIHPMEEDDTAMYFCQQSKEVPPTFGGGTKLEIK
notes: Murine hybridoma antibody
B4: JS007-3 (antibody, V domains shown)
VH: B1 VH
VL: B2 VL
notes: also called JS007-3 chimeric antibody
B5: JS007-15 (antibody, V domains shown)
VH: B1 VH with Q9P, G26A, L49M, Y59N, S88T, F95Y, N99D, F107S
VL: B2 VL
notes: also called JS007-15 chimeric antibody
B6: JS007-20 (antibody, V domains shown)
VH: B3 VH
VL: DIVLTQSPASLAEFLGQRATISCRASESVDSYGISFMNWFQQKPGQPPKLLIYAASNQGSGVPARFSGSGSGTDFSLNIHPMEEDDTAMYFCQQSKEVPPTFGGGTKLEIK
notes: also called JS007-20 chimeric antibody
B7: 1A5.1 (antibody, V domains shown)
VH: B1 VH
VL: B1 VL
notes: Murine hybridoma antibody
B8: 3E6.1 (antibody, V domains shown)
VH: EVKLVESGGGLVQPGGSLRLSCATSGFTFTDYYMSWVRQPPGKALEWLGFIRNKANGFTAEYSASVKGRFTISRDNSQSILYLQMNTLRAEDSATYYCARDSLAYPHYYAMDYWGQGTSVTVSS
VL: QIVLTQSPALMSASPGEKVTMTCSASSSVSYMYWYQQKPRSSPKPWIYLTSNLASGVPVRFSGSGSGTSYSLTISSMEAEDAATYYCQQWSSNSFTFGSGTKLEIK
notes: Murine hybridoma antibody

Key:
[1] = molecular target: T1, huCTLA-4 expressed on cells; test: FACS: huCTLA-4-expressing CHO cells, antibody 3-fold dilutions from 10 µg/mL, PE anti-human IgG; unit from the axis 'log(JS007 concentration (ng/mL))'
Method: (§1) 6.2 FACS Detection of Binding of Chimeric Antibodies to huCTLA-4-Expressing Cells HuCTLA-4-expressing cells (constructed in-house by Junmeng; CHO from ATCC) were co-incubated with each of the chimeric antibodies in Table 3 and the control antibody (ipilimumab) (serially diluted 3-fold from an initial concentration of 10 μg/mL) at room temperature for 30 min, and then a fluorescent secondary antibody (PE-anti human IgG) was added to detect the binding of the chimeric antibodies to the huCTLA-4-expressing cells.

huCTLA-4 ECD (his-tag) [2] = molecular target: T2, huCTLA-4 ECD (his-tag); test: ELISA: huCTLA-4 his coated at 1.0 µg/mL, antibody 2.5-fold dilutions from 1000 ng/mL, HRP goat anti-human IgG (Fc), OD 450 nm; unit from the axis 'Log ng/mL'
Method: HX1 hCTLA4 his was diluted with PBS (Hyclone) to 1.0 μg/mL, and the dilution was added to a microplate at 100 μL/well. The plate was let stand in an incubator at 37° C. and coated for 90 min and then washed, and 2% BSA was added to the plate at 200 μL/well. The plate was incubated in an incubator at 37° C. for 90 min and then washed. The chimeric antibodies in Table 3 and the control antibody (ipilimumab) were diluted with a diluent (2% BSA) to 1000 ng/mL. The dilution performed each time was not higher than 10-fold. Then, the chimeric antibodies and the control antibody were serially diluted 2.5-fold on a sample dilution plate. All the chimeric antibody solutions and the control antibody solution were added to a microplate at 100 μL/well. The plate was incubated in an incubator at 37° C. for 60 min and then washed. A horseradish peroxidase (HRP)-conjugated goat anti-human antibody IgG (Sigma, Catalog No. A0170) (Fc specific) was diluted 5000-fold with 2% BSA, and the dilution was added to the microplate at 100 μL/well. The plate was incubated in an incubator at 37° C. for 60 min and then washed. The color development solution TMB was added at 100 μL/well, during which bubbles were avoided. […] Reading (wavelength: 450/620 nm) was done within 10 min using a microplate reader.

BTLA on 293T-BTLA cells = molecular target: T5, BTLA on 293T-BTLA cells (UniProt Q7Z6A9 31-289, limits assumed); test: flow cytometry on 293T-BTLA cells
T5 construct: whole, on cells
Method: (§2) Then the above cell mixture was incubated with 5 μL of APC-labeled murine secondary antibody (Southern Biotech) at 4° C. for 20 min, and the secondary antibody bound onto the cells was detected. The control antibody was selected from commercially available CTLA4 monoclonal antibody L3D10 (BioLegend) and TIGIT monoclonal antibody MBSA43 (eBioscience).

[3] = molecular target: T3, TIGIT on 293T-TIGIT cells; test: flow cytometry on 293T-TIGIT cells
Method: as §2

huCTLA-4 [4] = molecular target: T4, huCTLA-4; test: ForteBio
huCTLA-4 [5] = molecular target: T4, huCTLA-4; test: FACS blocking, huCTLA4 recombinant protein on CD80-expressing CHO cells; CD80-expressing CHO cells
Method: (§3) The chimeric antibodies in Table 3 and the control antibody ipilimumab (serially diluted 3-fold from an initial concentration of 30 μg/mL) were each added to CD80- or CD86-expressing CHO cells (constructed in-house by Junmeng) together with a certain concentration of huCTLA4 recombinant protein. After they were co-incubated at room temperature for 30 min, a fluorescent secondary antibody (PE-anti human IgG4) (Southern biotech) was added to determine the abilities of the chimeric antibodies to block the binding of huCTLA-4 to the CD80/CD86-expressing cells.

huCTLA-4 ECD (his-tag) [6] = molecular target: T2, huCTLA-4 ECD (his-tag); test: ELISA, coated huCTLA-4 his
Method: HX1 hCTLA4 his was diluted with PBS (Hyclone) to 1.0 μg/mL, and the dilution was added to a microplate at 100 μL/well. The plate was let stand in an incubator at 37° C. and coated for 90 min and then washed, and 2% BSA was added to the plate at 200 μL/well. The plate was incubated in an incubator at 37° C. for 90 min and then washed. The humanized anti-CTLA-4 antibodies in Table 4 and the control antibody (ipilimumab) were diluted with a diluent (2% BSA) to 1000 ng/mL. The dilution performed each time was not higher than 10-fold. Then, the humanized antibodies and the control antibody were serially diluted 2.5-fold on a sample dilution plate. All the humanized antibody solutions and the control antibody solution were added to a microplate at 100 μL/well. The plate was incubated in an incubator at 37° C. for 60 min and then washed. An HRP-conjugated goat anti-human antibody IgG (Fc specific) was diluted 5000-fold with 2% BSA, and the dilution was added to the microplate at 100 μL/well. The plate was incubated in an incubator at 37° C. for 60 min and then washed. The color development solution TMB was added at 100 μL/well, during which bubbles were avoided. Color development was allowed at 37° C. for 15 min in the dark and then terminated by adding 2 M hydrochloric acid solution at 100 μL/well, during which bubbles were avoided. Reading (wavelength: 450/620 nm) was done within 10 min using a microplate reader.

[7] = molecular target: T1, huCTLA-4 expressed on cells; test: FACS on huCTLA-4-expressing CHO cells
Method: as §1

huCTLA-4 [8] = molecular target: T4, huCTLA-4; test: FACS blocking, huCTLA4 recombinant protein on CD86-expressing CHO cells; CD86-expressing CHO cells
Method: as §3

huCTLA-4 ECD (his-tag) [9] = molecular target: T2, huCTLA-4 ECD (his-tag); test: competition ELISA, coated huCTLA-4 his, competitor hCD80 Fc
Method: HX1 huCTLA4 his was diluted with PBS (Hyclone) to 1.0 μg/mL, and the dilution was added to a microplate at 100 μL/well. The plate was let stand in an incubator at 37° C. and incubated for 90 min and then washed, and 2% BSA was added to the plate at 200 μL/well. The plate was incubated in an incubator at 37° C. for 90 min and then washed. MX2 hCD80 Fc was diluted with 2% BSA to 5.0 μg/mL, and the dilution was used to dilute samples. The chimeric antibodies and the control antibody ipilimumab were diluted to 100 μg/mL. The dilution performed each time was not higher than 10-fold. Then, the chimeric antibodies and the control antibody were serially diluted 2.5-fold on a sample dilution plate. All the chimeric antibody solutions and the control antibody solution were added to a microplate at 100 μL/well. The plate was incubated in an incubator at 37° C. for 90 min and then washed. An HRP-conjugated goat anti-mouse antibody IgG (Fc specific) (Sigma, Catalog No. A2554) was diluted 5000-fold with 2% BSA, and the dilution was added to the microplate at 100 μL/well. The plate was incubated in an incubator at 37° C. for 60 min and then washed. The color development solution TMB was added at 100 μL/well, during which bubbles were avoided. Color development was allowed at 37° C. for 15 min in the dark and then terminated by adding 2 M hydrochloric acid solution at 100 μL/well, during which bubbles were avoided. Reading (wavelength: 450/620 nm) was done within 10 min using a microplate reader.

| Binder | binding result (BTLA on 293T-BTLA cells) | binding result [3] | Kd (huCTLA-4 [4]) | IC50 (huCTLA-4 [5]) | EC50 (huCTLA-4 ECD (his-tag) [6]) | EC50 [7] | IC50 (huCTLA-4 [8]) | IC50 (huCTLA-4 ECD (his-tag) [9]) | further results |
| --- | --- | --- | --- | --- | --- | --- | --- | --- | --- |
| B1 | – | – | – | – | – | – | – | – | EC50 [1]: 0.00418 µg/mL; EC50 (huCTLA-4 ECD (his-tag) [2]): ~788 µg/mL |
| B2 | – | – | – | – | – | – | – | – | EC50 (huCTLA-4 ECD (his-tag) [2]): ~4010 µg/mL |
| B3 | no binding (tested: 1 µg of hybridoma antibody) | no binding (tested: 1 µg of hybridoma antibody) | < 0.001 nM | – | – | – | – | – | – |
| B4 | – | – | – | 0.000699 µg/mL | 0.0172 µg/mL | 0.249 µg/mL | 0.196 ng/mL | 0.19 µg/mL | – |
| B5 | – | – | – | 0.000398 µg/mL | 0.0197 µg/mL | 0.189 µg/mL | 0.0816 ng/mL | 0.19 µg/mL | – |
| B6 | – | – | – | 0.00121 µg/mL | 0.0129 µg/mL | 0.486 µg/mL | 0.253 ng/mL | 0.187 µg/mL | – |
| B7 | no binding (tested: 1 µg of hybridoma antibody) | no binding (tested: 1 µg of hybridoma antibody) | 1.74 nM | – | – | – | – | – | – |
| B8 | no binding (tested: 1 µg of hybridoma antibody) | no binding (tested: 1 µg of hybridoma antibody) | < 0.001 nM | – | – | – | – | – | – |
